Measurements: PMC10467038 (Science translational medicine, 2023)
Each block holds one binder with its values, some of them ahead of it.

Legend:
[1] = biological target: complement C1q (purified) (UniProt P02745 23-245; P02746 28-253; P02747 29-245); experiment: ELISA
[2] = biological target: the molecule itself; experiment: negative staining electron microscopy

complement C1q (purified), sequence (P02745 23-245, chain 1 of 3): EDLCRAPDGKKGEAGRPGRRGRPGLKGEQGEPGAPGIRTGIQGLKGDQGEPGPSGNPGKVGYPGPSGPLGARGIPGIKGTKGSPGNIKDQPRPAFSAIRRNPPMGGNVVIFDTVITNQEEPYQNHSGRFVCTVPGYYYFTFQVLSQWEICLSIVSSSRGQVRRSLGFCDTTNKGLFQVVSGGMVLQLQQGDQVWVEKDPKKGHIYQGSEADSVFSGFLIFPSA
complement C1q (purified), sequence (P02746 28-253, chain 2 of 3): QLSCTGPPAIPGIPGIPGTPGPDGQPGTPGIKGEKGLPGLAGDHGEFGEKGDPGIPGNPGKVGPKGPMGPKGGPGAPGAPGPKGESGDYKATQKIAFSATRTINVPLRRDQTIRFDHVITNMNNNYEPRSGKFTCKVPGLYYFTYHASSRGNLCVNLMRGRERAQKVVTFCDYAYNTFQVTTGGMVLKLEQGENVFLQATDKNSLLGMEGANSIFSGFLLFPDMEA
complement C1q (purified), sequence (P02747 29-245, chain 3 of 3): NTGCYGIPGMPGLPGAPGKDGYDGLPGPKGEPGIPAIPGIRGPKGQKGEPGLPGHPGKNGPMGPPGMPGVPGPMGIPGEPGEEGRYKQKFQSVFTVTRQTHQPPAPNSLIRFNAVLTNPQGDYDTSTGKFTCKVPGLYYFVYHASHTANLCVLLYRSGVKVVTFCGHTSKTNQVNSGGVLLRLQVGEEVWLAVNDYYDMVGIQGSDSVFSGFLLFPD

- Kd [1]: ~2 nM
B1: Nptxr/Nptx2 coexpressed on a stable doxycycline-inducible CHO cell line (complex)
chain 1: MKFLAVLLAAGMLAFLGAVICIIASVPLAASPARALPGGADNASVASGAAASPGPQRSLSALHGAGGSAGPPALPGAPAASAHPLPPGPLFSRFLCTPLAAACPSGAQQGDAAGAAPGEREELLLLQSTAEQLRQTALQQEARIRADQDTIRELTGKLGRCESGLPRGLQGAGPRRDTMADGPWDSPALILELEDAVRALRDRIDRLEQELPARVNLSAAPAPVSAVPTGLHSKMDQLEGQLLAQVLALEKERVALSHSSRRQRQEVEKELDVLQGRVAELEHGSSAYSPPDAFKISIPIRNNYMYARVRKALPELYAFTACMWLRSRSSGTGQGTPFSYSVPGQANEIVLLEAGHEPMELLINDKVAQLPLSLKDNGWHHICIAWTTRDGLWSAYQDGELQGSGENLAAWHPIKPHGILILGQEQDTLGGRFDATQAFVGDIAQFNLWDHALTPAQVLGIANCTAPLLGNVLPWEDKLVEAFGGATKAAFDVCKGRAKA
chain 2: GAQDSPAPGSRFVCTALPPEAVHAGCPLPAMPMQGGAQSPEEELRAAVLQLRETVVQQKETLGAQREAIRELTGKLARCEGLAGGKARGAGATGKDTMGDLPRDPGHVVEQLSRSLQTLKDRLESLEHQLRANVSNAGLPGDFREVLQQRLGELERQLLRKVAELEDEKSLLHNETSAHRQKTESTLNALLQRVTELERGNSAFKSPDAFKVSLPLRTNYLYGKIKKTLPELYAFTICLWLRSSASPGIGTPFSYAVPGQANEIVLIEWGNNPIELLINDKVAQLPLFVSDGKWHHICVTWTTRDGMWEAFQDGEKLGTGENLAPWHPIKPGGVLILGQEQDTVGGRFDATQAFVGELSQFNIWDRVLRAQEIVNIANCSTNMPGNIIPWVDNNVDVFGGASKWPVETCEERLLDL

B2: neuronal pentraxin 2 (purified, recombinant) (natural protein, UniProt P47972 16-431, looked up)
chain: B1 chain 2
- stoichiometry N [2]: 6
